T1: GST–regnase-1^D141N (human, UniProt Q5D1E8 1-599, D141N)
T1 sequence (looked up): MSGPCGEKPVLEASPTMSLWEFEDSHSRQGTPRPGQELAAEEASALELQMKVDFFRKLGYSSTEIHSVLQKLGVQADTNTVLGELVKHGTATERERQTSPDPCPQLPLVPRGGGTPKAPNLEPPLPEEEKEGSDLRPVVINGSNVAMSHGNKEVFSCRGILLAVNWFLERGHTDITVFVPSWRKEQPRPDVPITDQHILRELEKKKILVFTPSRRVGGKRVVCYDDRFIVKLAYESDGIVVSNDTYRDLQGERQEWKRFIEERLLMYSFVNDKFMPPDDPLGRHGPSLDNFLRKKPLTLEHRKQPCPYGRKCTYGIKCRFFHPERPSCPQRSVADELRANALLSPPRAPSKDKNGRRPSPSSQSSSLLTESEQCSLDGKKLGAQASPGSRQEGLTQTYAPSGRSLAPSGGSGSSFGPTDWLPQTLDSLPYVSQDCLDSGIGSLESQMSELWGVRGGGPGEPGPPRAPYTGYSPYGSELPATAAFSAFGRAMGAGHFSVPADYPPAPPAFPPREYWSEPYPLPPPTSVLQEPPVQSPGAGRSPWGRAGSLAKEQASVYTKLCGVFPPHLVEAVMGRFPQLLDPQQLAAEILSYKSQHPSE


Target: T1, GST–regnase-1^D141N
Experiment: pull-down

fold reduction of binding against SUMO–roquin-1^aa2-440 wild type [fold]	Binder
2	Roquin-1^aa2-440;E212K (domain or fragment, UniProt Q4VGL6 2-440, looked up) PVQAPQWTDFLSCPICTQTFDETIRKPISLGCGHTVCKMCLNKLHRKACPFDQTTINTDIELLPVNSALLQLVGAQIPEQQPITLCSGVEDTKHYEEAKKCVEELALYLKPLSSARGVGLNSTTQSVLSRPMQRKLVTLVHCQLVEEEGRIRAMRAARSLGERTVTELILQHQNPQQLSSNLWAAVRARGCQFLGPAMQEEALKLVLLALKDGSALSRKVLVLFVVQRLEPRFPQASKTSIGHVVQLLYRASCFKVTKRDEDSSLMQLKEEFRTYEALRREHDSQIVQIAMEAGLRIAPDQWSSLLYGDQSHKSHMQSIIDKLQTPASFAQSVQELTIALQRTGDPANLNRLRPHLELLANIDPSPDAPPPTWEQLENGLVAVRTVVHGLVDYIQNHSKKGADQQQPPQHSKYKTYMCRDMKQRGGCPRGASCTFAHSQ
2	Roquin-1^aa2-440;M199R (domain or fragment, UniProt Q4VGL6 2-440, looked up) PVQAPQWTDFLSCPICTQTFDETIRKPISLGCGHTVCKMCLNKLHRKACPFDQTTINTDIELLPVNSALLQLVGAQIPEQQPITLCSGVEDTKHYEEAKKCVEELALYLKPLSSARGVGLNSTTQSVLSRPMQRKLVTLVHCQLVEEEGRIRAMRAARSLGERTVTELILQHQNPQQLSSNLWAAVRARGCQFLGPARQEEALKLVLLALEDGSALSRKVLVLFVVQRLEPRFPQASKTSIGHVVQLLYRASCFKVTKRDEDSSLMQLKEEFRTYEALRREHDSQIVQIAMEAGLRIAPDQWSSLLYGDQSHKSHMQSIIDKLQTPASFAQSVQELTIALQRTGDPANLNRLRPHLELLANIDPSPDAPPPTWEQLENGLVAVRTVVHGLVDYIQNHSKKGADQQQPPQHSKYKTYMCRDMKQRGGCPRGASCTFAHSQ
2	Roquin-1^aa2-440;L209Y (domain or fragment, UniProt Q4VGL6 2-440, looked up) PVQAPQWTDFLSCPICTQTFDETIRKPISLGCGHTVCKMCLNKLHRKACPFDQTTINTDIELLPVNSALLQLVGAQIPEQQPITLCSGVEDTKHYEEAKKCVEELALYLKPLSSARGVGLNSTTQSVLSRPMQRKLVTLVHCQLVEEEGRIRAMRAARSLGERTVTELILQHQNPQQLSSNLWAAVRARGCQFLGPAMQEEALKLVLYALEDGSALSRKVLVLFVVQRLEPRFPQASKTSIGHVVQLLYRASCFKVTKRDEDSSLMQLKEEFRTYEALRREHDSQIVQIAMEAGLRIAPDQWSSLLYGDQSHKSHMQSIIDKLQTPASFAQSVQELTIALQRTGDPANLNRLRPHLELLANIDPSPDAPPPTWEQLENGLVAVRTVVHGLVDYIQNHSKKGADQQQPPQHSKYKTYMCRDMKQRGGCPRGASCTFAHSQ
